Reference: paper PMC8784342, “Investigation of sugar binding kinetics of the E. coli sugar/H^+ symporter XylE using solid-supported membrane-based electrophysiology” (The Journal of Biological Chemistry, 2021)
Values joined by “and” are separate entries in the source; they are usually repeats but may differ in a detail not shown here. Identical values can stand only once.

Tests used:
Type in all cases: biochemical, Escherichia coli
[1] = substrate: OC1OC[C@@H](O)[C@@H](O)[C@@H]1O; assay: SSM-based electrophysiology, proteoliposomes with wt FucP
Experimental: (§1) Reconstitution of purified proteins (2–20 mg/ml) was carried out with E. coli phospholipids (Avanti Polar Lipids, E. coli polar lipid extract). Preformed liposomes (0.2–2 ml, 10 mg/ml) were dissolved in 1% (w/v) n-octyl-β-D-glucoside, and the protein suspension was mixed on ice to a concentration of 0.2 mg protein/mg lipid (LPR 5).
(§2) Wt XylE, wt FucP, and the mutant proteins were reconstituted using overnight incubation in 400 mg/ml BioBeads (SM-2 Adsorbent Media, Bio-Rad) at 4 °C. After reconstitution, the samples were diluted to 2.5 mg/ml lipid concentration, frozen in liquid nitrogen, and stored at −80 °C. For wt LacY and mutant proteins, this procedure was not successful. We, therefore, applied the previously established n-octyl-β-D-glucoside dilution method (1:100) ([69]).
(§3) SSM measurements were performed as described ([20], [23]). After thawing the sample and sonication in a water bath, 30 μl of proteoliposomes (2.5 mg/ml lipid at LPR 5) was allowed to adsorb for 1 to 2 h to an octadecanethiol/phosphatidylcholine hybrid bilayer on a gold surface (the sensor).
(§4) For measurements, a single solution exchange configuration ([23]) was employed that consisted in three phases of 0.5 s duration each: Flow of nonactivating solution (NA), activating solution (A), and nonactivating solution (NA). Only the activating solution contained the sugar. When pH dependence is determined, pH of NA and A solutions during one experiment are kept constant. Between experiments using different pH values, the sensor was incubated at the new pH for 3 min to equilibrate the intraliposomal pH.
(§5) Instruments with different time resolution were used as required. […] Currents were recorded throughout the entire time and amplified with a current amplifier set to a gain of […] and a rise time of 10 ms (low time-resolution set up) or 3 ms (high time-resolution set up).
(§6) All NA solutions were buffered in 100 mM KPi at a given pH value. […] Sugar concentration jumps initiated sugar-proton symport, and charge transfer was measured by capacitive coupling. Therefore, only transient currents were recorded. […]

[2] = substrate: OC[C@@H]1OC(O)[C@@H](O)[C@H](O)[C@@H]1O; assay: as above; details: other: pH 7.6, minor substrate, peak currents, low time-resolution set up
Experimental: as §1, §2, §3, §4, §5, §6

[3] = substrate: OC[C@H]1O[C@@H](O[C@@H]2[C@@H](CO)O[C@](O)(CO)[C@H]2O)[C@H](O)[C@@H](O)[C@H]1O; assay: SSM-based electrophysiology, proteoliposomes with wt LacY
Experimental: as §1
as §2, with “We, therefore, applied the previously established n-octyl-β-D-glucoside dilution method (1:100) ([69]).” left out
For measurements, a single solution exchange configuration ([23]) was employed that consisted in three phases of 0.5 s duration each: Flow of nonactivating solution (NA), activating solution (A), and nonactivating solution (NA). […] When pH dependence is determined, pH of NA and A solutions during one experiment are kept constant. […]
as §5
All NA solutions were buffered in 100 mM KPi at a given pH value. […] Therefore, only transient currents were recorded. […]

[4] = other: pH 7.6, minor substrate, peak currents, low time-resolution set up
[5] = other: pH 7.6, peak currents, Hill equation

B1: wt FucP (Escherichia coli K-12) (protein)
chain: MGNTSIQTQSYRAVDKDAGQSRSYIIPFALLCSLFFLWAVANNLNDILLPQFQQAFTLTNFQAGLIQSAFYFGYFIIPIPAGILMKKLSYKAGIITGLFLYALGAALFWPAAEIMNYTLFLVGLFIIAAGLGCLETAANPFVTVLGPESSGHFRLNLAQTFNSFGAIIAVVFGQSLILSNVPHQSQDVLDKMSPEQLSAYKHSLVLSVQTPYMIIVAIVLLVALLIMLTKFPALQSDNHSDAKQGSFSASLSRLARIRHWRWAVLAQFCYVGAQTACWSYLIRYAVEEIPGMTAGFAANYLTGTMVCFFIGRFTGTWLISRFAPHKVLAAYALIAMALCLISAFAGGHVGLIALTLCSAFMSIQYPTIFSLGIKNLGQDTKYGSSFIVMTIIGGGIVTPVMGFVSDAAGNIPTAELIPALCFAVIFIFARFRSQTATN
notes: made in house; host or cells: E. coli BL21 DE3
Q: How did the Km [1, 4] turn out when B1 was run?
A: 12.2 ± 2.8 mM

Q: And the K0.5 [1, 5]?
A: 80 ± 40 mM

Q: What about the Km [2] of the same protein?
A: 7.4 ± 1.3 mM

B2: wt LacY (Escherichia coli K-12) (protein)
chain: MYYLKNTNFWMFGLFFFFYFFIMGAYFPFFPIWLHDINHISKSDTGIIFAAISLFSLLFQPLFGLLSDKLGLRKYLLWIITGMLVMFAPFFIFIFGPLLQYNILVGSIVGGIYLGFCFNAGAPAVEAFIEKVSRRSNFEFGRARMFGCVGWALCASIVGIMFTINNQFVFWLGSGCALILAVLLFFAKTDAPSSATVANAVGANHSAFSLKLALELFRQPKLWFLSLYVIGVSCTYDVFDQQFANFFTSFFATGEQGTRVFGYVTTMGELLNASIMFFAPLIINRIGGKNALLLAGTIMSVRIIGSSFATSALEVVILKTLHMFEVPFLLVGCFKYITSQFEVRFSATIYLVCFCFFKQLAMIFMSVLAGNMYESIGFQGAYLVLGLVALGFTLISVFTLSGPGPLSLLRRQVNEVA
notes: made in house; host or cells: E. coli XL1-Blue
Q: Which results are given for B2?
A: Km [3, 4]: 2.27 ± 0.54 mM and 2.3 ± 0.6 mM; K0.5 [3, 5]: 6.94 ± 3.58 mM
